Experiments:
[1] = tested on: HCE-T cells; assay: FOXO3 translocation assay in IFNG/TNF stressed HCE-T cells; assay type: cell-based, human; conditions: dry eye tears 1:100, 10 nM, 15 min
Method: For FOXO3 translocation assays, HCE-T cells were grown in triplicate to subconfluence (˜50%) on coverslips in α-MEM (5.54 mm glucose), sensitized overnight in IFNG (100 units/ml; Roche Applied Science), and treated for 15 min with normal or dry eye tears diluted 1:100 in α-MEM together with TNF (50 ng/ml; PeproTech, Rocky Hill, N.J.) without or with 10 nm lacritin or C-25. Cells were washed, fixed with 4% paraformaldehyde, and immunostained for FOXO3 (1:200; Millipore, Billerica, Mass.) followed by goat anti-rabbit secondary antibody and visualization on a Zeiss LSM 700 microscope.

[2] = tested on: primary human corneal epithelial cells; assay: FOXO3 translocation in INFG/TNF stressed primary human corneal epithelial cells; assay type: cell-based
[3] = tested on: Aire(−/−) dry eye mice; assay: Topical treatment of Aire(-/-) dry eye mice; assay type: in vivo, mouse
Method: Autoimmune regulator (Aire)-deficient [Aire^−/−] mice spontaneously develop dry eye without need for dry chambers or scopolamine Aire^−/− mice were dosed three times daily for three weeks with 10 μl of 50 μg/mllacritin, or in controls with PBS. Several different assays monitored the consequences. […] Topical lacritin reduced CD4+T cell infiltration into lacrimal glands measured as the number of lymphocytic foci/per millimeter square area of lacrimal gland tissue (3.68±0.65 per mm sq lacritin vs. 9.7+1.5 per mm sq PBS; P=0.01), but had no apparent effect on the pattern or distribution of CD4+T cells into either the corneal stroma (14.6±1.6 lacritin vs 12.4±2.1 PBS) or the limbus (29.6±2.5 lacritin vs 34.6±2.9 PBS.
To assess ocular surface mucosal damage from dry eye, eyes of Aire(−/−) dry eye mice were topically administered lissamine green that increasingly stained PBS-treated eyes with time (See FIG. 4C). […] Thus, topical lacritin, and its bioactive fragments thereof, diminished lacrimal gland inflammation and corneal staining in dry eye, and promoted ocular surface differentiation. Importantly, suppression of inflammation and promotion of tearing was achieved without direct contact with inflammatory cells nor with tear producing cells.

[4] = tested on: corneal sensory nerves; assay: Corneal sensory nerve activity monitored at the trigeminal ganglion; assay type: in vivo, rat
Text: Topical lacritin stimulates tearing even without physical access to lacrimal acinar cells. The rapidity of the response is in keeping with corneal sensory nerve activation. Individual corneal sensory nerve activity was monitored at the level of the trigeminal ganglion in rats via previously described methods. Emerging from these studies was the observation that topical lacritin is neural stimulatory. […] The ‘dry response’ refers to neural activation as a consequence of drying of the cornea, which is thought to be a critical TRPM8-mediated stimulus for tearing, while the ‘wet response’ occurs when the agonist is present at the corneal nerve terminals. […] Apparent inhibition of the action potentials by lacritin during wet cornea was small because the TRPM8 activity during wet cornea is low to begin with, while it reaches optimal level during dry cornea when dynamic cooling of the ocular surface is taking place. Lacritin may also increase TRPM8 neural density.

[5] = assay type: in vitro ADME, human
Method: A limitation of most synthetic peptide drugs is their protease sensitivity. […] Retropepsin would inactivate LACRIPEP, while cathepsin K would have no effect. However neither protease is found in normal human tears. Nonetheless, tears are rich in other proteases. We therefore incubated LACRIPEP in normal human tears at 37° C. for 2, 4, 6 and 16 hr. For immunoblotting, we first removed all endogenous lacritin by immunodepletion. […] (FIG. 6B).

[6] = tested on: E. coli; assay: Lacritin inhibition (colony count) assay, E. coli; assay type: cell-based; conditions: 2 uM, mid-log E. coli
Method: (§1) Bacterial Growth, SYTOX Green Assays, and on Column Cleavage—E. coli (ATCC (Manassas Va.) catalog no. 10536), S. epidermidis (ATCC catalog no. 12228), and P. aeruginosa (ATCC catalog no. 9027) were grown to mid-log phase in 50 ml of Luria-Bertani (LB) medium and washed three times in phosphate buffer containing 10 mM NaCl (pH 7.2; PB—NaCl) with centrifugation. Pellets were resuspended in 1 ml of PB—NaCl.
(§2) For lacritin inhibition assays, 50 ul of bacterial pellets each diluted 1:100 in PB—NaCl were incubated for 1.5 h (37° C.) with 100 ul of lacritin, lacritin truncations, or synthetic peptides at a final concentration of 0.1-6 uM. Mixtures were diluted 1:10 in PB—NaCl before plating 100 ul in quadruplicate on LB agar plates for overnight growth at 37° C. Colonies were manually counted. In other experiments, mid-log E. coli was treated at 37° C. for 0, 1, 2, or 3 h with 2 uM lacritin or lacritin truncations or with ampicillin (5 uM) or tetracycline (2 uM). After each treatment, 100 ul was centrifuged, resuspended in 1 ml of PB—NaCl, and plated (100 ul) onto LB agar for overnight growth (37° C.) and colony counting.

[7] = tested on: P. aeruginosa; assay: Lacritin inhibition (colony count) assay, P. aeruginosa; assay type: cell-based; conditions: 2 uM, mid-log P. aeruginosa
Method: as §1, §2

[8] = tested on: S. epidermidis; assay: Lacritin inhibition (colony count) assay, S. epidermidis; assay type: cell-based; conditions: 2 uM, mid-log S. epidermidis
Method: as §1, §2

[9] = tested on: bacteria; assay: Lacritin inhibition (colony count) assay, bacterium not given; assay type: cell-based; conditions: whole protein
Method: as §1, §2

[10] = tested on: basal tearing; conditions: Sumadre et al. 2011, cited from earlier work

B1: lacritin: 12.3 kDa secreted tear glycoprotein; recombinant, generated in Escherichia coli (protein, listed as Homo sapiens)
chain: MKFTTLLFLAAVAGALVYAEDASSDSTGADPAQEAGTSKPNEEISGPAEPASPPETTTTAQETSAAAVQGTAKVTSSRQELNPLKSIVEKSILLTEQALAKAGKGMHGGVPGGKQFIENGSEFAQKLLKKFSLLKPWA
FOXO3 translocation to the cytoplasm by dry eye tears spiked with the substance [1]: translocated FOXO3 to the cytoplasm
FOXO3 translocation [2]: translocated FOXO3
Keratin 10 levels (skin epidermal marker) [3]: diminished levels
Keratin 12 expression (corneal marker) [3]: 80.1±4.8%
Lissamine green staining [3]: −0.417±0.06
Lymphocytic foci per millimeter square area of lacrimal gland tissue (CD4+T cell infiltration) ([3]; three times daily for three weeks, 10 μl of 50 μg/ml): 3.68±0.65 per mm sq
CD4+T cells in corneal stroma ([3]; three weeks): 14.6±1.6
CD4+T cells in limbus ([3]; three weeks): 29.6±2.5
Corneal neuron activity immediately after application ([4]; 10 μM, from ˜12 before): ~8 spikes/s
Wet response after 1 hr and washout ([4]; 10 μM, from ˜12 before): ~16 spikes/s
Dry response after 1 hr and washout ([4]; 10 μM, from ˜20 before): ~23 spikes/s
Neural dry response ([4]; topical): enhanced
Cross-linking of monomer spiked into immunodepleted tears [5]: formed dimers, trimers and tetramers
Appearance of colonies [6]: no effect on the appearance of colonies
Appearance of colonies [7]: no effect on the appearance of colonies
Appearance of colonies [8]: no effect on the appearance of colonies
Bactericidal activity [9]: does not have bactericidal activity
Tolerability of multiple doses per day [10]: well tolerated
Increase of basal tearing over vehicle ([10]; acute): 30%
